# Measurements: patent US20240391984A1
# Target: polyclonal IgG (Gammanorm, Octapharma, Sweden)
# Test: SPR (Biacore 8K+), variant amine-coupled to CM5, Gammanorm as analyte, steady state fit
row,Binder,Kd [nM]
1,"pAM153 (D1 domain; pos 10 N, pos 45 N, pos 60 N) (protein) PKEEVTIKANLIFADGKTQTAEFKGTFEEATAEAYRYADLLAKVNGEYTADLEDGGYTINIKFAGKEQPGEN",32
2,"pAM146 (C1 domain of Protein L; pos 10 N, pos 45 N, pos 60 N) (protein) PEEEVTIKANLIFADGSTQNAEFKGTFAKAVSDAYAYADALKKDNGEYTVDVADKGLTLNIKFAGKKEKPEE",61
3,"pAM159 (C1 domain of Protein L; pos 10 Q, pos 45 A, pos 60 Q) (designed binder) PEEEVTIKAQLIFADGSTQNAEFKGTFAKAVSDAYAYADALKKDAGEYTVDVADKGLTLQIKFAGKKEKPEE",103
4,"pAM148 (C2 domain of Protein L; pos 10 N, pos 45 N, pos 60 N) (protein) PKEEVTIKVNLIFADGKTQTAEFKGTFEEATAKAYAYADLLAKENGEYTADLEDGGNTINIKFAGKETPETPEE",35
5,"pAM150 (C3 domain of Protein L; pos 10 N, pos 45 N, pos 60 N) (protein) PKEEVTIKVNLIFADGKIQTAEFKGTFEEATAKAYAYANLLAKENGEYTADLEDGGNTINIKFAGKETPETPEE",40
6,"pAM164 (C3 domain of Protein L; pos 10 Q, pos 39 D, pos 45 A, pos 57 Y, pos 60 Q) (designed binder) PKEEVTIKVQLIFADGKIQTAEFKGTFEEATAKAYAYADLLAKEAGEYTADLEDGGYTIQIKFAGKETPETPEE",39
7,"pAM163 (C3 domain of Protein L; pos 10 Q, pos 45 A, pos 60 Q) (designed binder) PKEEVTIKVQLIFADGKIQTAEFKGTFEEATAKAYAYANLLAKEAGEYTADLEDGGNTIQIKFAGKETPETPEE",188
8,"pAM149 (C2 domain of Protein L; pos 10 N, pos 45 N, pos 57 Y, pos 60 N) (designed binder) PKEEVTIKVNLIFADGKTQTAEFKGTFEEATAKAYAYADLLAKENGEYTADLEDGGYTINIKFAGKETPETPEE",45
9,"pAM161 (C2 domain of Protein L; pos 10 Q, pos 45 A, pos 60 Q) (designed binder) PKEEVTIKVQLIFADGKTQTAEFKGTFEEATAKAYAYADLLAKEAGEYTADLEDGGNTIQIKFAGKETPETPEE",110
10,"pAM162 (C2 domain of Protein L; pos 10 Q, pos 45 A, pos 57 Y, pos 60 Q) (designed binder) PKEEVTIKVQLIFADGKTQTAEFKGTFEEATAKAYAYADLLAKEAGEYTADLEDGGYTIQIKFAGKETPETPEE",39
11,"pAM151 (C3 domain of Protein L; pos 10 N, pos 39 D, pos 45 N, pos 57 Y, pos 60 N) (designed binder) PKEEVTIKVNLIFADGKIQTAEFKGTFEEATAKAYAYADLLAKENGEYTADLEDGGYTINIKFAGKETPETPEE",30
12,"pAM152 (C4 domain of Protein L; pos 10 N, pos 45 N, pos 60 N) (protein) PKEEVTIKVNLIFADGKTQTAEFKGTFEEATAEAYRYADLLAKVNGEYTADLEDGGYTINIKFAGKEQPGENPG",24
13,"pAM143 (B2 domain of Protein L; pos 10 N, pos 45 N, pos 60 N) (protein) PKEEVTIKANLIYADGKTQTAEFKGTFEEAAAEAYRYADALKKDNGEYTVDVADKGYTLNIKFAGKEKTPEE",36
14,"pAM156 (B2 domain of Protein L; pos 10 Q, pos 45 A, pos 60 Q) (designed binder) PKEEVTIKAQLIYADGKTQTAEFKGTFEEAAAEAYRYADALKKDAGEYTVDVADKGYTLQIKFAGKEKTPEE",92
15,"pAM144 (B4 domain of Protein L; pos 10 N, pos 45 N, pos 60 N) (protein) PKEEVTIKANLIYADGKTQTAEFKGTFAEATAEAYRYADLLAKENGKYTADLEDGGYTINIRFAGKKVDEKPEE",38
16,"pAM157 (B4 domain of Protein L; pos 10 Q, pos 45 A, pos 60 Q) (designed binder) PKEEVTIKAQLIYADGKTQTAEFKGTFAEATAEAYRYADLLAKEAGKYTADLEDGGYTIQIRFAGKKVDEKPEE",38
17,"pAM141 (B1 domain of Protein L; pos 10 N, pos 45 N, pos 60 N) (protein) SEEEVTIKANLIFANGSTQTAEFKGTFEKATSEAYAYADTLKKDNGEYTVDVADKGYTLNIKFAGKEKTPEE",48
18,"pAM154 (B1 domain of Protein L; pos 10 Q, pos 45 A, pos 60 Q) (designed binder) SEEEVTIKAQLIFANGSTQTAEFKGTFEKATSEAYAYADTLKKDAGEYTVDVADKGYTLQIKFAGKEKTPEE",65
19,"pAM145 (B5 domain of Protein L with H45N backbone; pos 10 N, pos 45 N, pos 60 N) (designed binder) KEQVTIKENIYFEDGTVQTATFKGTFAEATAEAYRYADLLSKENGKYTADLEDGGYTINIRFAGKEEPEE",11
20,"pAM158 (B5 domain of Protein L; pos 10 Q, pos 45 A, pos 60 Q) (designed binder) KEQVTIKEQIYFEDGTVQTATFKGTFAEATAEAYRYADLLSKEAGKYTADLEDGGYTIQIRFAGKEEPEE",24

# Now from value to binder:
row,Kd [nM],Binder
1,41,"pAM166 (D1 domain; pos 10 Q, pos 45 A, pos 60 Q) (designed binder) PKEEVTIKAQLIFADGKTQTAEFKGTFEEATAEAYRYADLLAKVAGEYTADLEDGGYTIQIKFAGKEQPGEN"
2,110,"pAM172 (C1 domain of Protein L; pos 10 Y, pos 45 H, pos 60 Y) (designed binder) PEEEVTIKAYLIFADGSTQNAEFKGTFAKAVSDAYAYADALKKDHGEYTVDVADKGLTLYIKFAGKKEKPEE"
3,57,"pAM175 (C2 domain of Protein L; pos 10 Y, pos 45 H, pos 57 Y, pos 60 Y) (designed binder) PKEEVTIKVYLIFADGKTQTAEFKGTFEEATAKAYAYADLLAKEHGEYTADLEDGGYTIYIKFAGKETPETPEE"
4,105,"pAM174 (C2 domain of Protein L; pos 10 Y, pos 45 H, pos 60 Y) (designed binder) PKEEVTIKVYLIFADGKTQTAEFKGTFEEATAKAYAYADLLAKEHGEYTADLEDGGNTIYIKFAGKETPETPEE"
5,58,"pAM177 (C3 domain of Protein L; pos 10 Y, pos 39 D, pos 45 H, pos 57 Y, pos 60 Y) (designed binder) PKEEVTIKVYLIFADGKIQTAEFKGTFEEATAKAYAYADLLAKEHGEYTADLEDGGYTIYIKFAGKETPETPEE"
6,137,"pAM176 (C3 domain of Protein L; pos 10 Y, pos 45 H, pos 60 Y) (designed binder) PKEEVTIKVYLIFADGKIQTAEFKGTFEEATAKAYAYANLLAKEHGEYTADLEDGGNTIYIKFAGKETPETPEE"
7,45,"pAM178 (C4 domain of Protein L; pos 10 Y, pos 45 H, pos 60 Y) (designed binder) PKEEVTIKVYLIFADGKTQTAEFKGTFEEATAEAYRYADLLAKVHGEYTADLEDGGYTIYIKFAGKEQPGENPG"
8,38,"pAM165 (C4 domain of Protein L; pos 10 Q, pos 45 A, pos 60 Q) (designed binder) PKEEVTIKVQLIFADGKTQTAEFKGTFEEATAEAYRYADLLAKVAGEYTADLEDGGYTIQIKFAGKEQPGENPG"
9,76,"pAM169 (B2 domain of Protein L; pos 10 Y, pos 45 H, pos 60 Y) (designed binder) PKEEVTIKAYLIYADGKTQTAEFKGTFEEAAAEAYRYADALKKDHGEYTVDVADKGYTLYIKFAGKEKTPEE"
10,49,"pAM170 (B4 domain of Protein L; pos 10 Y, pos 45 H, pos 60 Y) (designed binder) PKEEVTIKAYLIYADGKTQTAEFKGTFAEATAEAYRYADLLAKEHGKYTADLEDGGYTIYIRFAGKKVDEKPEE"
11,97,"pAM167 (B1 domain of Protein L; pos 10 Y, pos 45 H, pos 60 Y) (designed binder) SEEEVTIKAYLIFANGSTQTAEFKGTFEKATSEAYAYADTLKKDHGEYTVDVADKGYTLYIKFAGKEKTPEE"
12,21,"pAM180 (B5 domain of Protein L; pos 10 N, pos 45 H, pos 60 N) (protein) KEQVTIKENIYFEDGTVQTATFKGTFAEATAEAYRYADLLSKEHGKYTADLEDGGYTINIRFAGKEEPEE"
13,40,"pAM171 (B5 domain of Protein L; pos 10 Y, pos 45 H, pos 60 Y) (designed binder) KEQVTIKEYIYFEDGTVQTATFKGTFAEATAEAYRYADLLSKEHGKYTADLEDGGYTIYIRFAGKEEPEE"
